Laboratory results published in article PMC5355995.

Tests used:
[1] = molecular target: T1, Rex-His6 (Streptomyces avermitilis ATCC31267) (UniProt Q82E78); experiment: EMSA; conditions: EMSA: DIG Gel Shift Kit (Roche) binding buffer, 1 ug poly[d(I-C)] in 20 ul, 30 min at 25 C, 5% native PAGE in 0.5x TBE; footprinting: 400 ng DNA in 25 ul …
T1 sequence: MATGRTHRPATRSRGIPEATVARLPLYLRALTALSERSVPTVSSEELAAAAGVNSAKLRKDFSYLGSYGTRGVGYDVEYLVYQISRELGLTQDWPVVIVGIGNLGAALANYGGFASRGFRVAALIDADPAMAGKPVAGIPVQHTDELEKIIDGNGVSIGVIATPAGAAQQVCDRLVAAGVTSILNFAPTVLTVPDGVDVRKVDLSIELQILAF

[2] = molecular target: T1, Rex-His6 (Streptomyces avermitilis ATCC31267); experiment: DNase I footprinting; conditions: EMSA: DIG Gel Shift Kit (Roche) binding buffer, 1 ug poly[d(I-C)] in 20 ul, 30 min at 25 C, 5% native PAGE in 0.5x TBE; footprinting: 400 ng DNA in 25 ul …

Sequence | binding [1] | binding [2]
CAGTTGCCACGGTGCTCCTGCGGGTAGCGCGGGGCTGCAGGCGGTCACACGTACCTAGACCGCCCCGTCGAAAGCAGGCTATGTCTTTGTGAACGCGTGCACAAAGATAGTGTCCGATTTGCCCGGCCAACGTGACCGGGGTCACGCGCCCCCGGCGTATGCGTATGGAACCGGCACACAGGCGCCTTCGTTCCTCACTCGACGGGGGCAAAACCGCACACACTCCTCAACGATCCACGCCCCCCGAGACCAAACCGCCCCCGATCCTAAGCGACTTTCCGGGCTGTTTGGACTACTC (double strand) [rex promoter probe] | binds | binds
GAGTCTCTACGTGGCGATCGAGACGGCCCGCAACACCGGCCTCCACAGAGAGCCAGAACCCCTCCTCAATCCAAAGGACCACGTCAGTCCGTCTGACGATCGGCCCTTCACTTGTTGAGGGATTCGTGAAAGCGTTCACATTCACAAGCAACCTGAATGTAATACCAAGGAGAGGTAGCAGCCATGGA (double strand) [wblE promoter EMSA probe] | binds | 
GCTTCATGATCCTTCGCCAGGTGGCAGAGATCACAAACTCCTTACTTACCCCCGTGTCGCAGATCACAGACCGCCGGGCATAGGATGCGCAGCAGTTGGGCTTGTGACCTGCTTCACATGTACGCGATCTTCGTCGGGACGCACGGGGTTCGTGGGACGTGTGAGGCGGGAGTGCTCGCCCGACGCAACCTCCCCCAAGGTCTCGGCTCCGCTCGACCAGGGGGACCCCCATGCAGTCAGTGCCGACTGAGAGGAGCGAGGAGCGTGAA (double strand) [nuoA1 promoter EMSA probe] | binds | 
